# Read-outs that look alike come from different tables or passages of the source.
# How the values were obtained:
# [1] = biological target: T1, human PD-L1 (ligand blocking test) (human, UniProt Q9NZQ7 19-238, limits assumed); experiment: blocking of B7-1 binding to human PD-L1, PD-L1 1 ug/ml; competitor B7-1
# [2] = biological target: T2, mouse PD-L1 (Cat. #50010-M08H, Sino Biological) (mouse, UniProt Q9EP73 19-238); experiment: SPR, Biacore X100
# T2 construct: Bought recombinant protein used in the Biacore test
# Protocol: (§1) According to the method in the manual of human anti-capture kit (Cat. A BR-1008-39, GE), the human anti-capture antibody was covalently coupled to biosensor chip CM5 (Cat. #BR-1000-12, GE) so that a certain amount of human PD-L1 (Cat. #10084-H08H, Sino Biological) monkey PD-L1 (Cat. #90251-C08H, Sino Biological), mouse PD-L1 (Cat. #50010-M08H, Sino Biological) were affinity captured. The affinity of PD-L1 antibody reacting with PD-L1 was measured with Biacore X100, GE instrument.
# [3] = biological target: T3, human PD-L1 (Cat. #10084-H08H, Sino Biological) (human, UniProt Q9NZQ7 19-239); experiment: SPR, Biacore X100, 1:1 Langmuir
# T3 construct: Bought recombinant protein used in the Biacore test; also called hPDL1; hPD-L1
# Protocol: as §1
# [4] = biological target: T4, monkey PD-L1 (Cat. #90251-C08H, Sino Biological) (monkey (cyno), UniProt G7PSE7 19-239); experiment: SPR, Biacore X100, 1:1 Langmuir
# T4 construct: Bought recombinant protein used in the Biacore test; also called Monkey (cyno) PD-L1; Cyno PDL1
# Protocol: as §1
# [5] = biological target: T3, human PD-L1 (Cat. #10084-H08H, Sino …); experiment: SPR, Biacore X100, 1:1 Langmuir; remark: listed apart in the source
# Protocol: as §1
# [6] = biological target: T4, monkey PD-L1 (Cat. #90251-C08H, Sino …); experiment: SPR, Biacore X100, 1:1 Langmuir; remark: listed apart in the source
# Protocol: as §1
# [7] = biological target: T1, human PD-L1 (ligand blocking test); experiment: blocking of human PD-L1/PD-1 binding, PD-L1 10 ug/ml; competitor PD-1
# [8] = biological target: T3, human PD-L1 (Cat. #10084-H08H, Sino …); experiment: SPR, Biacore X100
# Protocol: as §1
# [9] = biological target: T4, monkey PD-L1 (Cat. #90251-C08H, Sino …); experiment: SPR, Biacore X100
# Protocol: as §1
# T4 sequence (G7PSE7 entry or part of it C08H C08H): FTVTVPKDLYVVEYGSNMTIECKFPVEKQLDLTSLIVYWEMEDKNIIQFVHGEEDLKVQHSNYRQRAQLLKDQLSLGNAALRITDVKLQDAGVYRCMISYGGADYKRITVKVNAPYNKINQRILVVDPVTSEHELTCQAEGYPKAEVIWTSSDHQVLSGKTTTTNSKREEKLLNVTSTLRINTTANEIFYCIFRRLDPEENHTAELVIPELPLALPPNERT
# T3 sequence (Q9NZQ7 19-239 limits assumed): as the sequence (G7PSE7 entry or part of it C08H C08H) above, with T33A, S34A, N62S, Q68R, R82Q, L173F, A185T, I192T, L215H counted along it
# T1 sequence (Q9NZQ7 19-238 limits assumed): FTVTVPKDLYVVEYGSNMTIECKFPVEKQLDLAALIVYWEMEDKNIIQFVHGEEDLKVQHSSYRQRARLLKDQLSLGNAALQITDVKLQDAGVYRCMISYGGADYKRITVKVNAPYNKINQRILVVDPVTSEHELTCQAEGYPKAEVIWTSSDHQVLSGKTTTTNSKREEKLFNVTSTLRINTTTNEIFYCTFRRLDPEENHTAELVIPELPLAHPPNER
# T2 sequence (Q9EP73 19-238 limits assumed, stated change not applied): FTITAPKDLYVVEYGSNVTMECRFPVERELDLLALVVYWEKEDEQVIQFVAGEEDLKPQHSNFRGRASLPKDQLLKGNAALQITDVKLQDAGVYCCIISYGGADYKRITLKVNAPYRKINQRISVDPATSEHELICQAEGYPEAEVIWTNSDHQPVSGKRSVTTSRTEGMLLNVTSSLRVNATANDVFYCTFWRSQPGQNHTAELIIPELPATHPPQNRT
IC50 [1],binding result [2],Kd [3],koff [3],kon [3],Kd [4],koff [4],kon [4],Kd [5],koff [5],kon [5],Kd [6],koff [6],kon [6],IC50 [7],binding result [8],binding result [9],Binder
1.23 ng/mL,no binding,0.11 nM,0.000139 s⁻¹,1.26e+06 M⁻¹ s⁻¹,0.114 nM,0.000143 s⁻¹,1.26e+06 M⁻¹ s⁻¹,0.0672 nM,0.000116 s⁻¹,1.73e+06 M⁻¹ s⁻¹,0.062 nM,9.38e-05 s⁻¹,1.51e+06 M⁻¹ s⁻¹,0.242 ng/mL,–,–,"HRP00052: 24D5(GF)IgG4(AA)(S228P) (antibody, Parent antibody from WO2017084495A1) heavy: not shown light: DIVLTQSPASLAVSPGQRATITCRASESVSIHGTHLMHWYQQKPGQPPKLLIYAASNLESGVPARFSGSGSGTDFTLTINPVEAEDTANYYCQQSFEDPLTFGQGTKLEIKRTVAAPSVFIFPPSDEQLKSGTASVVCLLNNFYPREAKVQWKVDNALQSGNSQESVTEQDSKDSTYSLSSTLTLSKADYEKHKVYACEVTHQGLSSPVTKSFNRGEC"
–,–,–,–,–,–,–,–,–,–,–,–,–,–,–,no binding,no binding,"H21L68 (antibody, human IgG1, kappa, V domains shown, also called 24D5 H21 and 24D5 L68) VH: QVQLVQSGAEVKKPGASVKVSCKASGYTFTDKWMMWVRQAPGQGLEWMGRITPSSGFAMYNEKFKNRVTMTRDTSTSTVYMELSSLRSEDTAVYYCARGGSSYDYFDYWGQGTTVTVSS VL: DIVLTQSPASLAVSPGQRATITCRASESVSIHGTHLMHWYQQKPGQPPKLLIYVASNVWSGVPARFSGSGSGTDFTLTINPVEAEDTANYYCQQSFEDPLTFGQGTKLEIKR"

# Source: patent publication US20200339692A1 (JIANGSU HENGRUI MEDICINE, published 2020)
